Test results reported in US20160159869A1 (NORTHWESTERN UNIVERSITY, published 2016).
Each block holds one molecule with its values, some of them ahead of it. C16 = C16 alkyl tail covalently attached at the N-terminus

Key:
[1] = molecular target: Recombinant human BMP-2 (Medtronic Sofamor Danek) (human) (UniProt P12643); test: capture of BMP-2 by a 20 µL PA gel from medium containing 25 ng BMP-2, 37 °C, 4 h, sandwich ELISA of the medium
[2] = molecular target: T1, Human recombinant BMP-2 with hexahistidine-tag fused at the C-terminus (AdipoGen) (human, UniProt P12643 283-396); test: SPR (Biacore 3000): His-BMP-2 captured on Ni2+-NTA chip, PA injected at pH 8.4. Fit with the 2:1 binding model. Column ka.
T1 construct: Immobilised on a Ni2+-NTA chip for SPR; also called His-BMP-2; hexahistidine-tagged BMP-2
T1 sequence: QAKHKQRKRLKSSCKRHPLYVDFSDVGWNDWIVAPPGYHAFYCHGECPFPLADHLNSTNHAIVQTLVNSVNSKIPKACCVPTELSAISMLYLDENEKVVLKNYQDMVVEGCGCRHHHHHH
Protocol: (§1) The SPR measurements were performed using a Biacore 3000 instrument (GE Healthcare, Pittsburgh, Pa.) equipped with a NTA Sensor Chip (GE Healthcare) at 25° C. HBS-P eluent buffer and HBS-EP dispenser buffer were purchased from GE Healthcare. NiCl 2 solution (500 μM in eluent buffer), elution buffer (300 mM imidazole and 500 mM NaCl in water), and regeneration buffer (10 mM HEPES, 150 mM NaCl, 0.005% polysorbate 20, 350 mM EDTA at pH 7.4) were prepared according to Biacore specifications. Human recombinant BMP-2 with hexahistidine-tag fused at the C-terminus (AdipoGen, San Diego, Calif.) was initially reconstituted in PBS at 20 μg/ml, and diluted to 500 nM in eluent buffer.
(§2) Ni²⁺ was first loaded on the NTA chip for 5 min at a flow rate of 20 μl/min, and then His-BMP-2 for 1.25 min at 4 μl/min. Afterwards, each PA sample was injected for 2 min at […], followed by 5 min dissociation at […]. […] To compare binding affinity of the PAs, the sensograms were processed and analyzed with BIAevaluation 4.1 software. The sensogram from blank injection was subtracted from the PA sensograms, and the apparent equilibrium dissociation constant KD was determined using 2:1 binding model, which assumes bivalent analyte interaction with two dissociation constants kd,1 and kd,2, where kd,1 is more dominant.

[3] = molecular target: T1, Human recombinant BMP-2 with …; test: SPR (Biacore 3000): His-BMP-2 captured on Ni2+-NTA chip, PA injected at pH 8.4. Fit with the 2:1 binding model. Column kd,1 (major dissociation rate constant).
Protocol: as §1, §2

[4] = molecular target: T1, Human recombinant BMP-2 with …; test: SPR (Biacore 3000), His-BMP-2 immobilised on Ni2+-NTA chip, PA injected at pH 8.4, 2:1 binding model, KD from the major dissociation rate and ka; diluent PA (no binding segment), prepared at pH 8.4
Protocol: As a control, the BMP-2-binding PA ([…], pH 7.4) was injected to a bare NTA-dextran chip, and we observed non-specific binding of the PA to the surface (FIG. 4). It is contemplated that the fibrillar nanostructures can be entangled to the NTA-dextran surface. To circumvent this, the BMP-2-binding PA was prepared at pH 8.4, where more glutamic acid residues are deprotonated to induce greater electrostatic repulsion between the PA molecules, and sonicated the solution to further break up the supramolecular assembly. […] The best fit was obtained by using the 2:1 binding model, which had two dissociation constants: a major dissociation constant (k_{d,1}) and a minor dissociation constant (k_{d,2}) with the ratio of their contributions (R₁/R₂).
as §1, with “Human recombinant BMP-2 with hexahistidine-tag fused at the C-terminus (AdipoGen, San Diego, Calif.) was initially reconstituted in PBS at 20 μg/ml, and diluted to 500 nM in eluent buffer.” left out

- amount of BMP-2 bound on the gel after 4 h [1]: 15.5 ng
Molecule: diluted BMP-2-binding PA (D-BMP2b-PA), co-assembly of BMP2b-PA and diluent PA at 1:1 weight ratio

- kon [2]: 5300 M⁻¹ s⁻¹
- koff [3]: 0.011 s⁻¹
- Kd [4]: 2100 nM
B1: diluent PA, C16-V3A3E3-COOH (peptide)
peptide: C16-VVVAAAEEE-OH
notes: In SPR it was used as a solution at pH 8.4; In the capture assay it was a 1 wt % nanofiber gel formed with CaCl2; also called diluent PA gel
